Measured values: patent US8221773B2, “Hydrogels and uses thereof” (University of Delaware, priority 2004, dated 2012)
Where no end group is shown, it is not given here. [ ]: non-standard residue; d: D form.

Tests used:
[1] = cited from earlier work
[2] = Temperature dependent CD: temperature at which folding and self-assembly is triggered (Tgel); assay type: physicochemical; conditions: for temperature at which folding and consequent self-assembly is triggered (Tgel): 150 μM peptide, 125 mM Borate, 10 mM NaCl, pH 9, CD ellipticity at 218 nm
From the text: At low temperature MAX1 is unfolded (and unassembled). At high temperature MAX1 folds into beta-sheet (and consequently self-assembles into a hydrogel). […] The relative hydrophobicity is MAX1>MAX2>MAX3 due to the isostructural but less hydrophobic substitutions of threonine for valine at the underlined positions. The most hydrophobic folds at the lowest temperature while the least hydrophobic folds at the highest temperature. This is a direct manifestations of the molecular parameter manipulations described in FIG. 2. Also shown are the calculated free energy of transfer of each corresponding unfolded peptide having an overall +8 charge state from octanol into water at 25° C. MAX1, the most hydrophobic has the highest free energy of transfer equal to 7.60 kcal/mol. MAX2 has a calculated transfer free energy of 6.88 kcal/mol, while the least hydrophobic MAX3 has the lowest energy of transfer of 6.45 kcal/mol.
This allows the characteristics of the hydrogels of the invention to be varied by adjusting these parameters. […] It is well known that water is better able to solvate hydrophobic groups at low temperatures. This phenomenon has been used to describe the cold denaturation of proteins where some proteins unfold at low temperatures, exposing their hydrophobic interiors to aqueous solvent. A 150 μM aqueous solution of MAX1 unfolds when cooled below room temperature. The CD spectrum at 5° C. is consistent with random coil conformation, FIG. 9A. However, warming the solution to 40° C. results in a spectra consistent with β-sheet structure. […] In fact, previous studies involving the pH induced folding and self-assembly of MAX1 were performed at 20° C. At this temperature, folding and self-assembly are slow enough to be conveniently monitored. At higher temperatures, folding and self: assembly leading to hydrogelation is fast (instantaneous to seconds depending on concentration). If the formation of hydrophobic interactions affects the folding and self-assembly process, then altering the hydrophobic content of MAX1 should affect the temperature at which folding is triggered. […] MAX2 is identical to MAX1 except that one valine residue has been replaced with the isostructural, but less hydrophobic residue, threonine. In MAX3, two valines are replaced with threonine residues. The resulting peptides vary in their hydrophobicity as evident by comparing calculated free energies of transfer from octanol into water, FIG. 9. […] Thus, the formation of hydrophobic contacts influences folding and self-assembly. […] Thus, the characteristics of the hydrogels of the invention can be varied by adjusting the amino acid residues of the peptides used to form the hydrogels to increase or decrease the hydrophobicity of the amino acid residues used.
There are reports of large polymers that are thermally responsive. The present invention provides the first system that employs temperature triggered folding to induce self-assembly. […] Heating the solution to 80° C. results in a spectra consistent with β-sheet structure. […] The temperatures used in both CD and rheology bracket the temperature (Tgel=60° C., FIG. 9) at which folding and consequent self-assembly is triggered. […] For example, free flowing peptide solutions could be prepared at room temperature and administered in vivo where the temperature of the body could induce gelation. […]

[3] = Hydrogelation by folding and self-assembly; assay type: physicochemical; conditions: for reversibility of thermally induced hydrogelation: pH 9, heating/cooling cycles
Experimental: The ability of MAX1 to undergo hydrogelation is dependent upon its unimolecular folded state. Under basic aqueous solution conditions (pH 9.0, 125 mM Borate, 10 mM NaCl), where some of the lysine side chains of MAX1 are neutral, this peptide intramolecularly folds into an amphiphilic β-hairpin (folding can also be triggered at pH 7 under physiological conditions). One face of the hairpin is lined with hydrophobic valine residues while the other face is lined with hydrophilic lysine residues, FIGS. 2 and 3A. After intramolecular folding, subsequent self-assembly of hairpins is facilitated (a) laterally via H-bond formation and attractive hydrophobic interactions between distinct hairpins as well as (b) facially by hydrophobic association of the valine-rich faces of the folded peptide resulting in hydrogelation, FIG. 3B. Since the charged state of the lysine residues are controlled by pH, the unimolecular folding is reversible. Lowering the pH below the intrinsic pKa of the lysine side chains results in intra-strand charge repulsion from neighboring lysines and subsequent unfolding of individual hairpins, ultimately dissolving the self-assembled hydrogel structure. This reversible behavior is unique when compared to β-sheet-rich hydrogels prepared from classical fibril-based designs. In these systems, the self-assembly process is irreversible.
There are reports of large polymers that are thermally responsive. The present invention provides the first system that employs temperature triggered folding to induce self-assembly. […] Heating the solution to 80° C. results in a spectra consistent with β-sheet structure. […] The temperatures used in both CD and rheology bracket the temperature (Tgel=60° C., FIG. 9) at which folding and consequent self-assembly is triggered. […] For example, free flowing peptide solutions could be prepared at room temperature and administered in vivo where the temperature of the body could induce gelation. Some Poly-N-isopropylacrylamide polymers have been engineered have been engineered to undergo such transitions ultimately affording extracellular-like scaffolds for tissue regeneration. The above studies support the idea that the formation of hydrophobic interactions are important. MAX1-3 all contain valines and threonines at hydrogen bonded positions. At these positions, their side chains prefer to adopt a trans rotamer. As a result, hydrophobic residues that oppose each other across the hairpin point their side chains in opposite directions thus making the formation of intramolecular hydrophobic interactions across the strands difficult, FIG. 11A. However, these side chains are nicely positioned to interact laterally with the hydrophobic side chains of neighboring hairpins in the self-assembled state, FIG. 11B. Forming these lateral hydrophobic interactions should favor self-assembly. […] In MAX4, opposing valine side chains are expected to point towards each other, FIG. 11B. Thus, the valine side chains of MAX4 are less likely than those in MAX1 to form lateral intermolecular hydrophobic interactions. If the formation of lateral intermolecular hydrophobic interactions is of more importance for self-assembly than intramolecular hydrophobic contacts, then the rate of self-assembly should be faster for MAX1 than for MAX4. This difference in rate should be evident in the rate of storage moduli (rigidity) increase. […] (Tgel=20° C. for both peptides). […]

[4] = CD spectroscopy of peptide folding (random coil vs β-sheet); assay type: physicochemical; conditions: 150 μM solution, pH 9.0, 125 mM Borate, 10 mM NaCl
Experimental: Time-dependent circular dichroism (CD) studies support a hydrogelation mechanism consistent with intramolecular hairpin formation followed by self-assembly. […] At temperatures >25° C. the folding and self-assembly of MAX1 occurs on the order of seconds. […] This behavior is consistent across all spectro- and microscopic methods used to interrogate MAX1. For example, at micromolar concentrations used for the CD studies shown in FIGS. 4A and 4B, self-assembly takes hours at 20° C. At millimolar concentrations, such as those used in the rheological studies described below, self-assembly leading to hydrogel takes minutes at 20° C.
The reversibility of the folding and self-assembly process was investigated by measuring θ216 as a function of pH and time as shown in FIG. 4C. CD of a stirred solution of MAX1 at pH 5.5 indicates random coil conformation. Adjusting the pH to 9.0 by the addition of NaOH results in β-sheet formation as expected. However, subsequent adjustment of the pH to 6.0 results in complete loss of sheet signal and full recovery of random coil signal. […] Again, this reversible behavior is not observed in hydrogels formed from amyloid/prion-like fibrils.
In some embodiments of the invention, various functionalities (e.g., cell adhesion epitopes, receptor agonists, receptor antagonists, ligands, small molecules, etc) may be incorporated into the hairpin hydrogel scaffold. One way to accomplish this would be to functionalize one or more amino acid side chains of the peptide. […] In some embodiments, the moieties to be incorporated at a particular side chain may be much larger (e.g. RGD-based motifs) and may contain charged residues. MAX5 (VKVKVKVKV^DPPTKVKEKVKV-NH2) was prepared to investigate the possibility of incorporating a charged residue on the hydrophobic face of MAX1. The sequence contains a glutamic acid residue at position 16 which is negatively charged at basic pH where MAX1 normally folds and assembles. […] However, alterations to the hydrophilic face of MAX1 are well tolerated. Sequences in which one or two lysine residues are replaced with other residues such as cysteine, serine, and glutamic acid are capable of folding and self-assembly into rigid hydrogels (data not shown).
The peptides described above contain identical turn sequences, namely (-V^DPPT-). This sequence has a strong propensity to form a type II′ turn and therefore helps to drive intramolecular folding. Since intramolecular folding must occur prior to self-assembly, alterations to this turn sequence that inhibit turn structure formation can be used to modulate intramolecular folding and self-assembly leading to hydrogelation. MAX9 was prepared to probe the importance of the turn region (VKVKVKVKV^LPPTKVKVKVKV-NH2). […]

NC(=O)CN1CCN(CC(N)=O)CCN(CC(N)=O)CCN(CC(N)=O)CC1 [DOTAM]
Kd ([1]; read-out: Kd for calcium): 29 nM

-DRKADGYIDFEE-
Kd for Ca(II) ([1]; linear peptide): low mM

KVKVKVKV K^DPPS VKVKVKVK-NH2 (chain 1 KVKVKVKVK[dP]PS; not fully specified) [MAX4]
temperature at which folding and consequent self-assembly is triggered (Tgel) [2]: 20 °C

VKVKVKTK V^DPPT KVKTKVKV-NH2 (not fully specified (C-terminus)) [MAX3]
temperature at which folding and consequent self-assembly is triggered (Tgel) [2]: 60 °C | reversibility of thermally induced hydrogelation [3]: thermally reversible

VKVKVKVK VPPT KVKVKVKV-NH2 (VKVKVKVKVPPTKVKVKVKV-NH2) [MAX9]
conformation by CD under folding conditions [4]: only random coil | hydrogelation under folding conditions ([3]; 2 wt % solutions): failed to undergo hydrogelation

VKVKVKVK V^DPPT KVKCKVKV-NH2 (not fully specified (C-terminus)) [MAX6]
ability to fold and self-assemble [3]: folds and self-assembles

VKVKVKVK V^DPPT KVKEKVKV-NH2 [MAX5]
conformation by CD under folding conditions [4]: random coil

VKVKVKVK V^DPPT KVKTKVKV-NH2 (not fully specified (C-terminus)) [MAX2]
temperature above which peptide folds/self-assembles ([2]; pH 9 (10 mM NaCl)): greater than 45 °C | temperature below which peptide is unfolded ([2]; pH 9 (10 mM NaCl)): below 40 °C | reversibility of thermally induced hydrogelation [3]: not reversible
